For data set [1], the target named is HSFA1a-MBP (UniProt P41151 1-495). Put plainly: EMSA. In general terms: A gel shift assay detects complexes by their altered migration in electrophoresis.
The target in data set [2] is T1, BES1 (BES1-GST / GST-BES1);HSFA1a-MBP (Arabidopsis thaliana?;Arabidopsis …, UniProt Q9LN63;P41151 1-335;1-495, |). Briefly: EMSA.
The target of data set [3] is BES1 (BES1-GST / GST-BES1) (UniProt Q9LN63 1-335). Briefly: EMSA.
Data set [4] has as its target T1, BES1 (BES1-GST / GST-BES1);HSFA1a-MBP. Put plainly: competition.

Where a chain is given by its changes, count along the chain named.

The record followed here is article PMC8804921.

T1 sequence (Q9LN63 whole entry, chain 1 of 2): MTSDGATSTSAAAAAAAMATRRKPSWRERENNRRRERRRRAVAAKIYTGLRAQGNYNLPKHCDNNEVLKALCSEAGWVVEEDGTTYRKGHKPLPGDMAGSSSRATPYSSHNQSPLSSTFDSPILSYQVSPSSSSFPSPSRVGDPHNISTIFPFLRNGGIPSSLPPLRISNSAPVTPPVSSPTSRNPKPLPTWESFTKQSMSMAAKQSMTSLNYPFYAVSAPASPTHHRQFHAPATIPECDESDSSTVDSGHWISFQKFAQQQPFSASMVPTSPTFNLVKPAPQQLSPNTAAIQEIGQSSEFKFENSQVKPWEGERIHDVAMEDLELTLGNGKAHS
T1 sequence (P41151 whole entry, chain 2 of 2): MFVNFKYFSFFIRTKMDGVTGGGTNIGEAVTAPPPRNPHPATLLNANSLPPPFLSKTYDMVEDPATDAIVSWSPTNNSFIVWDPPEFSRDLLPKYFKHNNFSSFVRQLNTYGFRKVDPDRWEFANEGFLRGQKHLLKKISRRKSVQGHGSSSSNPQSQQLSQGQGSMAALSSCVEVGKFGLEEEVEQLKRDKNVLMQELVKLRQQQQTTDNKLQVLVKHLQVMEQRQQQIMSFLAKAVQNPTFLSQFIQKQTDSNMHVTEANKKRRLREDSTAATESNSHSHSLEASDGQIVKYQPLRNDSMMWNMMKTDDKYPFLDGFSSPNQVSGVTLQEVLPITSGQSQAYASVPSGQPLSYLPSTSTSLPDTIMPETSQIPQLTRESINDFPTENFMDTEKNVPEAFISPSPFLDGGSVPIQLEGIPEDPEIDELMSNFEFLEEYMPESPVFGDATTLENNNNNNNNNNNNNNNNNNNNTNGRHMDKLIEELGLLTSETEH
BES1 (BES1-GST / GST-BES1), sequence (Q9LN63 whole entry): as the sequence (Q9LN63 whole entry, chain 1 of 2) above
HSFA1a-MBP, sequence (P41151 whole entry): as the sequence (P41151 whole entry, chain 2 of 2) above

B1: pHSP90.1 EMSA HSE (C1 +HSE) (dsDNA)
DNA 1: GAGTCTCGAAACGAAAAGAACTTTCTGGAATTCGTTTGCTCACAAAG
DNA 2: CTTTGTGAGCAAACGAATTCCAGAAAGTTCTTTTCGTTTCGAGACTC
For the molecule B1, the binding result in data set [1] and in data set [2] was “binds” throughout.

B2: pHSP90.1 EMSA BRRE (C1 +BRRE) (dsDNA)
DNA 1: TCCATCAGCTACAAAGTCGTGTGCGATTTTGAGTCGTTGT
DNA 2: ACAACGACTCAAAATCGCACACGACTTTGTAGCTGATGGA
Turning to B2, in data set [3], the binding result is given as “binds”.

B3: pHSP70.3 EMSA BRRE (C1 +BRRE) (dsDNA)
DNA 1: ATCCAACTCCAAAAGATCGTGCGGTTACATAGCGAGCCAT
DNA 2: ATGGCTCGCTATGTAACCGCACGATCTTTTGGAGTTGGAT
As for B3, the binding result in data set [3] was “binds”.

B4: pHSP70.3 EMSA HSE (C1 +HSE) (dsDNA)
DNA 1: TTACATAGCGAGCCATCGAACCTTCTCGAAACTCGAGTACAAGACTC
DNA 2: GAGTCTTGTACTCGAGTTTCGAGAAGGTTCGATGGCTCGCTATGTAA
On to B4, for which the binding result in data set [1] and in data set [2] was “binds” each time.

B5: pHSP70.3 EMSA HSEmut (C2 -HSE) (dsDNA)
DNA 1: B4 DNA 1 with G18T, C25A, G28T
DNA 2: B4 DNA 2 with C20A, G23T, C30A
For the molecule B5, the binding result in data set [4] was “no binding”.
